The target in the test is human plasma-derived Factor IXa (human) (UniProt P00740). The experiment in a line: cell-based or functional assay.

Consider 1 molecule from US20260193376A1.

Sequence of human plasma-derived Factor IXa (human) (P00740 47-191, chain 1 of 2): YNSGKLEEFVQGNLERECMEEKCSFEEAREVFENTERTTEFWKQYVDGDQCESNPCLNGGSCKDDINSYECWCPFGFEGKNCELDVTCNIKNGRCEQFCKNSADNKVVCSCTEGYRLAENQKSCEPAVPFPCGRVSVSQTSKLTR
Sequence of human plasma-derived Factor IXa (human) (P00740 227-461, chain 2 of 2): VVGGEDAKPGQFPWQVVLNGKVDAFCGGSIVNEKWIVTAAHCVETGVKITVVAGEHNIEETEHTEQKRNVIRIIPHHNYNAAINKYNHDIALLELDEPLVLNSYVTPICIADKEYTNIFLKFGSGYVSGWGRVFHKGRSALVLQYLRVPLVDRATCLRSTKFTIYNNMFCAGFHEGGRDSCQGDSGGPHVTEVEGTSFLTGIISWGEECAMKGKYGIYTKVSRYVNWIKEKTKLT

B1: one-armed (OA) 224F3 antibody (antibody, from another filing, V domains shown)
VH: QVQMQQSGAELVKPGASVKLSCKASGYTFTSQDINWVRQRPEQGLEWIGWIFPGDGSTKYNEKLKGKATLTTDKSSSTAFMQLSRLTSEDSAVYFCARSAYYRYDGSYYYAMDYWGQGTSVTVSS
VL: QIVLTQSPAIMSASLGEEITLTCSASSSVSYMLWYQQKSGTSPKLLIYTTSNLASGVPSRFSGTGSGTFYSLTISSVEAEDAADYYCHQWSSYPRTFGGGTKLEIKR
Molecule B1 had a Stimulation Index, FXa generation assay, 3260 nM OA antibody below 10 fold.
